Measured values from patent US20250122298A1 (published 2025).

What was measured:
[1] = target: T1, recombinant cynomolgus TfR-1 (cynomolgus, UniProt H9EXL1 89-760); assay: ELISA
T1 chain: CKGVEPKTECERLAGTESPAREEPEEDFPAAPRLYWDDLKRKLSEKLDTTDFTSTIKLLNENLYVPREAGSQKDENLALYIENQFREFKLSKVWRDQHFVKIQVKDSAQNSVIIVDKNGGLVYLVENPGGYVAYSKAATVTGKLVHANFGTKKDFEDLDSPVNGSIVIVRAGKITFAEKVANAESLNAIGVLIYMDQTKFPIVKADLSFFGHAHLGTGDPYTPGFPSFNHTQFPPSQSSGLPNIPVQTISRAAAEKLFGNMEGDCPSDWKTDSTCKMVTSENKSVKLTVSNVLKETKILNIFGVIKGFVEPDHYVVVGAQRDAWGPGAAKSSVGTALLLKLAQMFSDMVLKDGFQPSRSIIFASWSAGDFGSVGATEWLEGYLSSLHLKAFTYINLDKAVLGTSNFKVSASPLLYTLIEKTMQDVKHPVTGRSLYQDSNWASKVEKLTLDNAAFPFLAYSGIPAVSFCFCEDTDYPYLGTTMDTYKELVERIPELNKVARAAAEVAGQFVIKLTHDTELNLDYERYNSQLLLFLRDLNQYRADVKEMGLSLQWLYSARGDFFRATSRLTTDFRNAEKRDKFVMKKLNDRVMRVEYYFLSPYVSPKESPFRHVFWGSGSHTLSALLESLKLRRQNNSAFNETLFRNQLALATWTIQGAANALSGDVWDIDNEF

[2] = target: recombinant human TfR-1 (human, UniProt P02786 89-760); assay: ELISA

B1: R2D4 (Fc fusion)
chain: ARVDQTPQTATKETGESLTINCVLRDSNCALSSTYWYRKKSGSTNEENISKGGRKYVETVESGSKSFSLKINDLTVEDSGTYRCNVVGTWCMSWRDVSGDGTVVTVNA
EC50 [1]: 3 nM
EC50 [2]: 4.1 nM
